In patent publication US20150368327A1 (YOKOHAMA CITY UNIVERSITY, published 2015):

T1: human Sema 3A protein (human, UniProt Q14563 21-771, limits assumed)
T1 construct: also called Human Sema 3A antigen; human-derived Sema 3A protein
T1 sequence (looked up): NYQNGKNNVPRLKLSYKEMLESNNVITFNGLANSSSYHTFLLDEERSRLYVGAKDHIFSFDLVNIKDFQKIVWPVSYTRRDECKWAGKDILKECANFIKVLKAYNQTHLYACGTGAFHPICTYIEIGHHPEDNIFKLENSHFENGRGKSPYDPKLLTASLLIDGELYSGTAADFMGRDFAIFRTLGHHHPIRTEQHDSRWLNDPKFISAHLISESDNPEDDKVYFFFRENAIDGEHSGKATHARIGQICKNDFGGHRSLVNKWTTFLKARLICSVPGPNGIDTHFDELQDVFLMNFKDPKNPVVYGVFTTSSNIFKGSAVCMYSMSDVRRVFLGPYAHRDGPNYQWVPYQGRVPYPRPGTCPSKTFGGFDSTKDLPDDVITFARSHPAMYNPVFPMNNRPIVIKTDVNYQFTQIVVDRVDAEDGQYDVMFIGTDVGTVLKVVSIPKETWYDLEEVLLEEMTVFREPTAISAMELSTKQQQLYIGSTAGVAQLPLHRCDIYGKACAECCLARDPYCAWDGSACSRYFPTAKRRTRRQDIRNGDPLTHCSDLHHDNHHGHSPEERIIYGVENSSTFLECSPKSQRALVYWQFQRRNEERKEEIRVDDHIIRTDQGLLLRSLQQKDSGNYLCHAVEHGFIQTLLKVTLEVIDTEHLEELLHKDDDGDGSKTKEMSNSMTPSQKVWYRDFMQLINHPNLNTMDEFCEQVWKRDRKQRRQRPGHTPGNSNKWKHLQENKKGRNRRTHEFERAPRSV

T2: mouse Sema 3A protein (mouse, UniProt O08665 21-772, limits assumed)
T2 construct: Produced from mouse Sema 3A protein expressing cells; also called Mouse Sema 3A antigen
T2 sequence (looked up): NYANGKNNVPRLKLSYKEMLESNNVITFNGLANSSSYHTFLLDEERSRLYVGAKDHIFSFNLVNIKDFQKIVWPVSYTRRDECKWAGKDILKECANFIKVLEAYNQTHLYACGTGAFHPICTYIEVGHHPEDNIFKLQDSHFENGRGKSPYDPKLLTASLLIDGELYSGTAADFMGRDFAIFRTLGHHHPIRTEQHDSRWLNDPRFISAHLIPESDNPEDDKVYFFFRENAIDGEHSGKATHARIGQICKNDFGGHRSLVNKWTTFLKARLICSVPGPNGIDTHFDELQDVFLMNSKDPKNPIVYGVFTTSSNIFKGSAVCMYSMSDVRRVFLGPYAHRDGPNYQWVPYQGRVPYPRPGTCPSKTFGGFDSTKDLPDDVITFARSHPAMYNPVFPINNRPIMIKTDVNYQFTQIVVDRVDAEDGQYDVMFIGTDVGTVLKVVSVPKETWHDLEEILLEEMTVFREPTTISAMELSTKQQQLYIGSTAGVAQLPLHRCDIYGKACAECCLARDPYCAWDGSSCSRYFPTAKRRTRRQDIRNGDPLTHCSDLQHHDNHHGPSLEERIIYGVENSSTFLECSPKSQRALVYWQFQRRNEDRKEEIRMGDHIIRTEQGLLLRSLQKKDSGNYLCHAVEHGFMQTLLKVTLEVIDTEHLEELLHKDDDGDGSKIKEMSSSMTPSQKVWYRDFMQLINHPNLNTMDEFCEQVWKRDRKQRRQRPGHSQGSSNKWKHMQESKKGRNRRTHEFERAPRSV

T3: ovalbumin (OVA) (UniProt P01012 2-386)
T3 sequence (looked up): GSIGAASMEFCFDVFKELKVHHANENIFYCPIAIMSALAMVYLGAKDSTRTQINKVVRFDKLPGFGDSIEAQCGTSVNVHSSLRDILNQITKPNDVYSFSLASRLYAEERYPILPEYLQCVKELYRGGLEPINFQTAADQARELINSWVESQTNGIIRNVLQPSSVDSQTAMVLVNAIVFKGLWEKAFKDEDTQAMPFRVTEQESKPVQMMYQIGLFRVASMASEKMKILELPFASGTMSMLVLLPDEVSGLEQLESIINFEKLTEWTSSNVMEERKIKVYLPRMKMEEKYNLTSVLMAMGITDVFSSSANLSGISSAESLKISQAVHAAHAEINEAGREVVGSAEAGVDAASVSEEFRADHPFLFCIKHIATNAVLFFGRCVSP


How the values were obtained:
human Sema 3A protein [1] = molecular target: T1, human Sema 3A protein; assay: direct solid phase ELISA screening with human Sema 3A as antigen
human Sema 3A protein [2] = molecular target: T1, human Sema 3A protein; assay: competitive ELISA on plate-coated human Sema 3A; competitor biotin-labelled avian-mouse chimeric antibody (clone No. 4-2) at 60 ng/mL
Procedure: (§1) The obtained clone No. 4-2-derived avian-mouse chimeric antibody in Example 1, the obtained humanized antibodies in Example 2 (Humanized-1 and Humanized-2) and avian-human chimeric antibody were subjected to competitive ELISA to evaluate affinity to the antigen. CL18M (+) avian-mouse chimeric antibody, which served as a negative control, was also measured for affinity to the antigen. Particular measurement conditions were as follows.
(§2) Firstly, 2.5 μg/mL of antigen (mouse and human Sema 3A protein) was dispensed into a 384 Well MaxiSorp Plate (Nunc) and reacted overnight at 4° C. in order to coat the plate with the antigen. The next day, the plate was washed three times with 50 μL/well of washing solution (PBS containing 0.05% Tween 20), to which was added 25 μL/well of blocking solution (PBS containing 1% bovine serum albumin) and the mixture was reacted for 30 minutes. Each of humanized antibodies (Humanized-1 and Humanized-2), avian-human chimeric antibody and avian-mouse chimeric antibody was subjected to serial doubling dilution, to which was mixed anti-Sema 3A avian-mouse chimeric antibody labeled with biotin to the final concentration of 60 ng/mL, and the mixture was reacted with the antigen solid phase plate which was washed three times with 50 μL/well of washing solution for one hour. The plate was washed five times with 50 μL/well of washing solution, to which was added 20 μL/well of diluent in which streptavidin labeled with horseradish peroxidase (HRP) (Thermo Fisher Scientific K.K.) was diluted 10000 times with PBS buffer and the mixture was reacted for 30 minutes. The plate was washed five times with 50 μL/well of washing solution, to which was added 20 μL/well of TMB+(Dako) and the mixture was chromogenically reacted for 20 minutes. Subsequently, to the each well was added 20 μL, of 1M sulfuric acid to quench the reaction. The absorbance was measured at 450 nm using Infinite M1000 (Tecan Trading AG).

mouse Sema 3A protein = molecular target: T2, mouse Sema 3A protein; assay: competitive ELISA on plate-coated mouse Sema 3A; competitor biotin-labelled avian-mouse chimeric antibody (clone No. 4-2) at 60 ng/mL
Procedure: as §1, §2

ovalbumin (OVA) = molecular target: T3, ovalbumin (OVA); assay: antigen solid phase ELISA: coated ovalbumin, anti-human lambda light chain-HRP, A450
Procedure: (§3) The obtained avian-mouse chimeric antibody in Example 1 and the obtained humanized antibodies (Humanized-1 and Humanized-2) and avian-human chimeric antibody in Example 2 were measured for antigenic specificity by antigen solid phase ELISA with PBS buffer. The obtained avian-mouse chimeric antibody in Example 1, which was labeled with biotin, was also measured for antigenic specificity. CL18M (+) avian-mouse chimeric antibody, which served as a negative control, was also measured for antigenic specificity. Particular measurement conditions were as follows.
(§4) Firstly, 2.5 μg/mL of antigen (mouse and human Sema 3A protein) was dispensed into a 384 Well MaxiSorp Plate (Nunc) and reacted overnight at 4° C. in order to coat the plate with the antigen. Otherwise, ovalbumin (OVA) and bovine serum albumin (BSA) were immobilized in the plate as negative controls in similar manner in order to examine specificity of antibodies. After reaction, the plate was washed three times with 50 μL/well of washing solution (PBS containing 0.05% Tween 20), to which was added 25 μL/well of blocking solution (PBS buffer containing 1% bovine serum albumin), and the mixture was reacted for 30 minutes. The resultant product was washed three times with 50 μL/well of washing solution, to which were added 20 μL/well of respective antibodies and the mixture was reacted for one hour. The resultant product was washed five times with 50 μL/well of washing solution, to which was added 20 μL of diluent in which anti-human λ light chain goat antibody labeled with horseradish peroxidase (HRP) (SouthernBiotech) was diluted 4000 times with PBS buffer, in which anti-mouse IgG2A goat antibody labeled with horseradish peroxidase (HRP) (Bethyl Laboratories, Inc.) was diluted 2000 times with PBS buffer or in which streptavidin labeled with horseradish peroxidase (HRP) (Thermo Fisher Scientific K.K.) was diluted 10000 times with PBS buffer and the mixture was reacted for one hour. […] The absorbance was measured at 450 nm using Infinite M1000 (Tecan Trading AG).

[3] = molecular target: bovine serum albumin (BSA) (bovine, UniProt P02769 25-607); assay: antigen solid phase ELISA: coated BSA, anti-human lambda light chain-HRP, A450
Chain of bovine serum albumin (BSA) (P02769 25-607 limits assumed): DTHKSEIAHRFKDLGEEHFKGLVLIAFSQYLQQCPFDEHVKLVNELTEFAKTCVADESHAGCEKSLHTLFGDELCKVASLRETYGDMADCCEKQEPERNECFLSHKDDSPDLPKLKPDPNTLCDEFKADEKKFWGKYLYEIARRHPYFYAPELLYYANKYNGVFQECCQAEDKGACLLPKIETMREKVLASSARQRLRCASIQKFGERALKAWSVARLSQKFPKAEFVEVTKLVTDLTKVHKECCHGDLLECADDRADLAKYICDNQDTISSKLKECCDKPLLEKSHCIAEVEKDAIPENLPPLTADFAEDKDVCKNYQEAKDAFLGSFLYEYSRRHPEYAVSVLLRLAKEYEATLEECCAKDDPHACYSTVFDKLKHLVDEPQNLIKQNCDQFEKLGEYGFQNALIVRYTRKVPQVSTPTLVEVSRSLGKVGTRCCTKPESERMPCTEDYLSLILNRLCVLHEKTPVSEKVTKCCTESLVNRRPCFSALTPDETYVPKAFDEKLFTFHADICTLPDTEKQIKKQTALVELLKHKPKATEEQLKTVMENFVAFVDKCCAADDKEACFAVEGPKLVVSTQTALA
Procedure: as §3, §4

Row | binding result (human Sema 3A protein [1]) | IC50 (human Sema 3A protein [2]) [µg/mL] | IC50 (mouse Sema 3A protein) [µg/mL] | binding result (ovalbumin (OVA)) | binding result [3] | Binder
1 | binds | – | – | – | – | Anti-Sema 3A avian-mouse chimeric antibody (clone No. 165 strain-derived) (antibody, V domains shown, IgG from DT40 cells in which the constant region of chicken IgM was replaced with that of mouse IgG) VH: AVTLDESGGGLQTPGGGLSLVCKASGFTFSSYEMQWVRQAPGKGLEWVAGIYTGSTWYGAAVKGRATISRDNGQSTVRLQLNNLRAEDTAIYYCAKSGIGVNSAAFIDAWGHGTEVIVSS VL: ALTQPASVSANPGETVKITCSGGGSYGGSYYYGWYQQKAPGSAPVTVIYNNNKRPSNIPSRFSGSLSGSTNTLTITGVRADDEAVYFCGSADNSGTAFGAGTTLTVL
2 | binds | – | – | – | – | Anti-Sema 3A avian-mouse chimeric antibody (clone No. 582 strain-derived) (antibody, V domains shown, IgG from DT40 cells in which the constant region of chicken IgM was replaced with that of mouse IgG) VH: AVTLDESGGGLQTPGGALSLVCKASGFTMSSYEMQWVRQAPGKGLEWVAAIYTRSTWYGAAVKGRATISRDNGQSTVRLQLNNLRAEDTGTYYCAKSGIGLNSAAFIDAWGHGTEVIVSS VL: ALTQPASVSANPGETVKITCSGGGSYGGSYYYGWYQQKAPGSAPVTVIYTNNKRPSNIPSRFSGSLSGSTNTLTITGVRADDEAVYFCGSADNSGTAFGAGTTLTVL
3 | – | 0.054 | 0.112 | no binding (tested: about 2 µg/mL) | no binding (tested: about 2 µg/mL) | Anti-Sema 3A avian-human chimeric antibody (clone No. 4-2-derived) (antibody, human IgG1) heavy: not shown light: ALTQPASVSANLGGTVKITCSGGGSYTGSYYYGWYQQKSPGSALVTMIYYNNKRPSDIPSRFSGSLSGSTNTLTITGVRADDEAVYFCGSADNSGDAFGAGTTLTVLGQPKANPTVTLFPPSSEELQANKATLVCLISDFYPGAVTVAWKADSSPVKAGVETTTPSKQSNNKYAASSYLSLTPEQWKSHRSYSCQVTHEGSTVEKTVAPTECS
4 | – | 0.071 | 0.12 | no binding (tested: about 2 µg/mL) | no binding (tested: about 2 µg/mL) | Anti-Sema 3A humanized antibody (Humanized-1) (clone No. 4-2 strain-derived) (antibody, human IgG1, lambda, V domains shown, Human IgG1 heavy and human lambda light constant regions) VH: EVQLLESGGGLVQPGGSLRLSCAASGFTFSSYPMGWVRQAPGKGLEWVAGIDDDGDSDTRYAPAVKGRATISRDNSKNTVYLQMNSLRAEDTAVYYCAKHTGIGANSAGSIDAWGQGTLVTVSS VL: SYELTQPPSVSVSPGQTARITCSGGGSYTGSYYYGWYQQKPGQAPVTMIYYNNKRPSDIPERFSGSLSGTTNTLTISGVQAEDEADYYCGSADNSGDAFGTGTKVTVLG
5 | – | 0.101 | 0.157 | no binding (tested: about 2 µg/mL) | no binding (tested: about 2 µg/mL) | Anti-Sema 3A humanized antibody (Humanized-2) (clone No. 4-2 strain-derived) (antibody, human IgG1, lambda, V domains shown, Human IgG1 heavy and human lambda light constant regions) VH: EVQLLESGGGLVQPGGSLRLSCAASGFTFSSYPMGWVRQAPGKGLEWVAGIDDDGDSDTRYAPAVKGRATISRDNSKNTVYLQMNSLRAEDTAVYYCAKHTGIGANSAGSIDAWGQGTLVTVSS VL: SYELTQPPSVSVSPGQTARITCSGGGSYTGSYYYGWYQQKPGQAPVTVIYYNNKRPSDIPERFSGSLSGTTNTLTISGVQAEDEADYYCGSADNSGDAFGTGTKVTVLG
